In the DeepSol protein solubility set:

test: soluble on expression in E. coli; label from the status in PepcDB or PDB records

Sequence | soluble on expression in E. coli
MGSDKIHHHHHHMEFSPQQDEALQAVARWLQAGKPQLFRLFGYAGTGKTTLARYFAEHVDGQVQFAAFTGKAAQVLRSKGAVNARTIHSLIYRPKGEESVEDEVTGKTSMSPTFSLNRQSPISRAKLVVIDECSMVDEQLGRDLMSFGTPILVLGDPGQLPPISGGGFFTDHEPDFLLTEIHRQARDNPILRLALDVREGREFMRGDYGTAQVIGKEDVTQELVLKADQVLVGTNRTRRRYNQRLRELKGFNADYPQAGDKLVCLRNDPAKGLLNGSLWKVMTSSRETVKPGINLLVSPEEDDPDRGVAKIKLLKAAFEDPDADIPWQQKKRFDDFDYGYALTVHKAQGSQWNEIVLFDESWAFKETRQRWLYTAITRAAERLTIVR | not soluble
MIRTVKPKNARAKRALVKREAKLVENVKQALFIPGQSCNKNLHDIMVDLSALKKPDMKRFNRKNDIHPFEDMSPLEFFSEKNDCSLMVLMTSSKKRKNNMTFIRTFGYKIYDMIELMVADNFKLLSDFKKLTFTVGLKPMFTFQGAAFDTHPVYKQIKSLFLDFFRGESTDLQDVAGLQHVISMTIQGDFQDGEPLPNVLFRVYKLKSYKSDQGGKRLPRIELVEIGPRLDFKIGRIHTPSPDMVTEAHKKPKQLEMKTKKNVELDIMGDKLGRIHMGKQDLGKLQTRKMKGLKSKFDQGTEEGDGEVDEDYEDEASYSDDGQEYEEEFVSATDIEPSAKRQKK | not soluble
SNQKIASIEQLSNNEGIISALAFDQRGALKRMMAKHQTEEPTVAQIEQLKVLVAEELTQYASSILLDPEYGLPASDARNKDCGLLLAYEKTGYDVNAKGRLPDCLVEWSAKRLKEQGANAVKFLLYYDVDDAEEINIQKKAYIERIGSECVAEDIPFFLEVLTYDDNIPDNGSVEFAKVKPRKVNEAMKLFSEPRFNVDVLKVEVPVNMKYVEGFAEGEVVYTKEEAAQHFKDQDAATHLPYIYLSAGVSAELFQETLKFAHEAGAKFNGVLCGRATWSGAVQVYIEQGEDAAREWLRTTGFKNIDDLNKVLKDTATSWKQ | not soluble
MASSGDYDEIIKSISDAPPTHYMVKIESFSLLTKHAIERYETESFEAGGYKWKLVLYPNGNKSKNTKDHVSVYLSLADSSSLSPGWEVYAVFRLYLLDQNKDNYLILQGNERRFHSVKREWGFDKFIPTGTFSDASNGYLMEDTCMFGADVFVSKERRSGRGECLSMIKDATSSKHVWKIENFSKLDKESYDSNAFFAGDRKWKIEFYPTGTKQGTGTHLSIYLTLVDPETISDGTKIFVEFTIRIFDQLQGRHIAGKVTKWFSRSSSEHGWVKYVSMVYFTQPNSGLLLKDVCLVEADVCVHGITSAI | soluble
MSNVAENNDGVYDAPTGITAPPIDELLKHVSSKYALVIFAAKRARQINSYYQQADEGVFEFVGPLVTPEAQEKPLSIAMREIEAGLLDHEEG | not soluble
MPTVPIPARKAATTFDTPSKHERIEVKPPITRFIRRAITRVFGVWSHISTQVVRQWGWYPRVEPYVGYGTGDYSRLICRTVYAPKHAQSGELIRGIRGMLAVPAPRTHVQASIDDMPLNTVQIGVSEVYDKVDRTRDLGSEYAISDSAGYLDLVAEHRLVPGIHRVSYSVANRKPVSANLYTIPASAKVGIISDVDDTIMITQAPVPWKAAYNLLFLDPKKKASVPGMSVLFTRIADLFPGAPFFYLSTSPWNVESSIRNFITDHGFPEGPLLLRDLDPRPKTFVPTGPQHKLEFAEQLMADFPDMKFILVGDDGQKDPTTYATIARRYPGRVLAIVIRELSPRESTGLASVTGLTSTQPTPVTDVPVFTGTTGSNILKTMLPYLKTVLRLEHHHHHH | not soluble
MDFECQFVCELKELAPVPALLIRTQTTMSELGSLFEAGYHDILQLLAGQGKSPSGPPFARYFGMSAGTFEVEFGFPVEGGVEGSGRVVTGLTPSGKAASSLYIGPYGEIEAVYDALMKWVDDNGFDLSGEAYEIYLDNPAETAPDQLRTRVSLMLHESLEHHHHHH | soluble
MDRGVAQVASAPALGAGGRWFKSSRPDHFFIEVDKALLKEVKDMPIYRYVCEECGYETTVMHGINESPEVICEECGAKMKRTIGRVGIIFKGSGFYITDSRKSEKKKEAASASSEKKD | not soluble
MAKVVIPNGAEGEEAVYREQVIREYSGNPFIEALPPIYAPEEVVEKLAVYPPYSEEERNLDAHYRIHLTQKLFHCFQPLPQHLDLESRISRVIRQGYLPRNPVSKEYVISLKDGYRAVQNCDINANQQFRSTACGFTIIGVSGMGKSVSINRVLSMYPQVIVHSRYKGQGFSFYQLVWLKLDTPFDGSVKGLCIDFFNKVDQLMGTDFYKKVANSRKSVDYMLTLMCQVVRNTGLGLLIIDEVQHLCGARGLGDERMLNFFVTLVNTAGVPIILIATPKAMSILQSEFRQARRGSGQGDMVWERLQYDENFEILLDSLWQYQWTRKESILTKSMRELLYEESQGIIDIICKIIVMAQTIAISTGKEQVDEKLIQQVAREHLQLVRPMILALKSGNIREIAKYSDICTAEIDYGKLVNQEKLPVEMRMRIRAIKEQKEKREKENKTSKMEQALYKLAELGIDVAKARKAVEAVFEAEGHNIDEGQLVIKAIQVLSGNTTEKKSKKVKTTPKSENDLRYIVEEGRNQGKSAYDALKDKGYIKGEKNDTLFKAV | not soluble
MTTARPAKARNEGQWALGHREPLNANEELKKAGNPLDVRERIENIYAKQGFDSIDKTDLRGRFRWWGLYTQREQGYDGTWTGDDNIDKLEAKYFMMRVRCDGGALSAAALRTLGQISTEFARDTADISDRQNVQYHWIEVENVPEIWRRLDDVGLQTTEACGDCPRVVLGSPLAGESLDEVLDPTWAIEEIVRRYIGKPDFADLPRKYKTAISGLQDVAHEINDVAFIGVNHPEHGPGLDLWVGGGLSTNPMLAQRVGAWVPLGEVPEVWAAVTSVFRDYGYRRLRAKARLKFLIKDWGIAKFREVLETEYLKRPLIDGPAPEPVKHPIDHVGVQRLKNGLNAVGVAPIAGRVSGTILTAVADLMARAGSDRIRFTPYQKLVILDIPDALLDDLIAGLDALGLQSRPSHWRRNLMACSGIEFCKLSFAETRVRAQHLVPELERRLEDINSQLDVPITVNINGCPNSCARIQIADIGFKGQMIDDGHGGSVEGFQVHLGGHLGLDAGFGRKLRQHKVTSDELGDYIDRVVRNFVKHRSEGERFAQWVIRAEEDDLR | soluble
MTITPPTPNGDLHIGHIAGPFLAADVFTRVQRQRGHDCVLVSYSDDYQSYMLRKGLEQGVDPVVLAHRNSDRIEASLAAINIKPDNWMRPHNNPWFAEAVGEVFTALRDAGAIEFRDSSEPYCPDCAVWGYEAFARGQCNYCGAESDASQCENCAQAPDAELMSGLHCKLCQQPSQWKTAHRAFLKLADFKPQLGNRLLGQAWRKPLDSWLRDTLEHLHDWGVTRPGDGGLDLQADGACRVHTWFMGLAGYMAAFREYADSIGRPELFGQYWQSGQGTLVHFLGFDCVFSHAIVYPAQLSVLQGIKVRQRFVPNQFLKLDGLNLSTSRNHAIWVGDLARQACADSARLYLASIAPEDSEGDFRMTHFFEWREELFNGF | not soluble
MAHHHHHHMGTLEAQTQGPGSMSVFSGFPASPPDAILNLTVLYNADTNPKKVNLGVGAYRDESGKPWILPAVKEAEAIISSDLSKYNKEYPPVAGFPLFLEAAQFLMFGKDSKAAQEGRIASCQSLSGTGSLHIGFEFLHLWMPKAEFYMPSTTWPNHYGIYDKVFNKLKVPYKEYTYLRKDGELEIDFSNTKKDIQSAPEKSIFLFHACAHNPSGIDFTEAQWKELLPIMKEKKHIAFFDSAYQGFATGSFEADAFAVRMFVDAGVEVLVAQSFSKNFGLYGERIGCLHVVHAGVEGSVEKNKALSAAMVSGMTLQIRKTWSMSAIHGAYIVQVIVHDKRLLQMFYDNVKEMSARIHRMRSLLHASLAKRKTPGPGSKGTWDHILTAIGMFTFTGLTPEHVDYLKEKWSIYLVKAGGRMSMCGLTESNCDYVAEAIHDAVTKLPFKK | soluble
MKAFDQVNHSLLLQKLHDFGINPLFCNWFHDFLSSRTFSVKVNNHIDPNIHPISSGVPKGSVSGPFLFLIFINSLLLSVPPSISCSAFADDLKVYSHSPPLIQTTIDLITTWSENNKLPLAVHKAALLNKLGFSSNCVLLLAPLINSLVCRLLAASRTGVSTVAHSKTCLLHLGKKNPKTVYKINNLPISPSNIARDLGILTDSKLTFKPHIKKIVSLALLRCKQLLKSFKSLCPEFYCNLFKTYILPLIEYGSAVYSPKPSSSLSTLLEKPLRWYSQKVLQKFNVSYSLYNDRLKSLNLHSIRHRRLKSKLILLYKFCCGTSFLRRKETFFKLSTSSRRPMRIICHNPSSNNFFSDTISFWNAITNNCDTFLSPIHFENLVDNSITRL | not soluble
MSLKREIILYKSISTDLLEQLKNRFIVHQHQLKSEMDDSFFSDLQRVEGIIGSKLRVDGHLLDQAPHLKIVTNISVGYDNLEIEELTKRGIMATNTPDVLTDTVADTVFGLLLATSRRICELDQYVKLGRWDENIGEHLFGVDVHHKTLGIIGMGRIGLAVAERAHYGFKMKIVYHNRSTHSYAEKNINATYASLEELLTVSDFVLVMAPLVPETVKLIGEKEFDLMKETAIFLNGSRGELVDELALIHALQSKKIWGAGLDVYEQEPISKESLLLQLKNVVTLPHIGSATRETRYKMAKLAVDNLMKGFTGEVPPSLINPDVLTDEGHHHHHH | not soluble
MANFIDRRLNAKGKSTVNRQRFINRYKQQIKKAVSDAVTRRSVTDVDKGEKISIPTRDISEPMFHQGKGGVRDRVHPGNDQFTRGDKIDRPQGGSGGGAGKGDASDSGEGNDDFVFEISKDEYLELLFEDLELPNLQKNRLNKLVEYQIYRAGFTNDGVPANINIVRSLRSSLARRIAMSASKKKLLKESEQELAELENIPGTKAELILDLKAQIEELKRKIAKVPFIDTFDLRFNNFSRREVPSSQAVMFCLMDVSGSMDQATKDMAKRFYILLYLFLTRTYKNLEVVYIRHHTQAKEVDEHEFFYSQETGGTIVSSALKLMHEIQQARYPADEWNIYAAQASDGDNWADDSPTCKQLLEQKILPLVRYFSYIEITNRAHQTLWREYESLQQHYDNIAVQHIRQAEDIYPVFRELFKKQAVLEHHHHHH | not soluble
MAHHHHHHMCFVARHKPALISGEAVVWLMERITGEELDVRSLENLCSAVVHLPVAVRTALRQELMEFVAFLSLQARELLQQVPAAQGGLSGCSDADAIQYFVSHVLELTVMLRTYPDLQWPPEFLAAVDACAASVEPLQEALLSAESSPVGLMVRLLEAPTGECKRVGLAMLREAANQCQSFATLQTFRFLLLMGDHGLQDVGTSRYLRDQFAKTAADVPPVQLSVALRCLGVATAGAATQGASGAGELRATVEGTAGNADLDDELERERLDAFLQFCVEVSRKHLSQGAPLRCVLATTESLHRLGCRDTAFFADVAAYIAAKHAAAPAERESADTATAVCAALGEDLLGEYPAVREFLLDVAQRGVRGESAMSPTQWMNLHDPSNALTPLTEQQQESWDIVEEMVRTRSDDVDALVRLAEKYMELLPFARPDDHKYFFGVCEEKVLKQDKLLKKCLDTIVDCGAVSRLSAQTIASILHSLAAIRFEYFASVKRFTSSISDEQWLLMEAAPLVQILTGMDKLSLRTPAVLRRIGGRLTEICRFLTPLDTAQAIHALQALGHNDAKLLGKLAAHAAALARRFDEASMAVLFSTPSIHRLMSTPEVARPLLLQASAKIQSQHRREKISAWVRRSGLPRELIDESTRRLQVTSGDARSSEVHLRLT | not soluble
MGAFLDKPKMEKHNAQGQGNGLRYGLSSMQGWRVEMEDAHTAVIGLPSGLESWSFFAVYDGHAGSQVAKYCCEHLLDHITNNQDFKGSAGAPSVENVKNGIRTGFLEIDEHMRVMSEKKHGADRSGSTAVGVLISPQHTYFINCGDSRGLLCRNRKVHFFTQDHKPSNPLEKERIQNAGGSVMIQRVNGSLAVSRALGDFDYKCVHGKGPTEQLVSPEPEVHDIERSEEDDQFIILACDGIWDVMGNEELCDFVRSRLEVTDDLEKVCNEVVDTCLYKGSRDNMSVILICFPNAPKVSPEAVKKEAELDKYLECRVEEIIKKQGEGVPDLVHVMRTLASENIPSLPPGGELASKRNVIEAVYNRLNPYKNDDTDSTSTDDMWLEHHHHHH | soluble
